Experimental data reported in the domain aggregation screens of Martell et al. (2025).

Assay: soluble fraction after stress (log2 fold change); higher = more stays soluble; pooled small domains, quantitative proteomics
Conditions: stress: pH 4
Summary of the method: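 Aggregation propensity is read out as the fold change in how much of each domain remains soluble after acid stress. The custom small-domain libraries were pooled, held at pH 4 and analysed with high-throughput quantitative proteomics. On the log2 scale used, higher values mean more of the domain stayed soluble.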

| Sequence | soluble fraction (log2) |
| --- | --- |
| HMTVLSKEEFVAIEQRLLQLLGTAPVDNKILLQQLSGIKKEKAWKVLSFLQAENKIGMDATGRVYL | -0.697 |
| HMEIVQVIAQNIQDLLDKHKISVSELSGYLGISRQTLTNYLKTTSTIDSVQLVKIADFFNIPAEYLLKDH | -0.659 |
| HMITTLLVENLQDVGMRLDHYLVYNLIKYSRSHIQSFIRSGDIRVNGKKVKTGYSLELKDLIHIEMP | -1.1 |
| HMNVPATAEAYEALLADAESVGKSLWGHEAKRFAAEQALLSAGLREVIQVDPDKARELALRLRGLLDEYRG | -1.24 |
| HMQPQYSVLFSNIEEKDGGSIITLLQQGNVPYKVENGGTTILVPANRANELRLTLAAQGLPK | 0.223 |
| HMWTKKELWNAIAKLPKKQRTVVMMRIAQNLPYKDISEITGMSIGSAKVNYHHAVNSLKQWLS | 0.22 |
| HMGDTIGEQKAKEIALEHAGLKSSDVTFIRAVLEYDDRNWEYDVEFYDADTYTEYDYEIDAHTGKILSFDH | -0.171 |
| HMTQFSASSERAGAGGAYRTTLRAMEQNGDLLQISILLPDAVTAKHAATVWPERAQAIYTAILSELLK | -0.167 |
| HMTGSALDATIEKLLDLGSKAGSVTEDEIQIVLKNVDVTDAQLSSIYQFLRDRGVEIVSATEDDD | -1.38 |
| HMDTLESYVKRLEKLEGIADSFKGVSKAFALQAGREIRIMVESEKITDEEAVWLSKDIARRIENELEYPG | -0.468 |
| HMENKTGEVTVREDSALTLRQGPGTNYEKVGQAYRGDRVDVLEEQNGWYKVKTYDGKEAWASSSYISIV | -0.0485 |
| HMNIQPAMLNAANGGVAWKERGISMSQIMKRNAHTAEGSQKLWDYAFENFFQKNIDAGNIRDDR | -0.237 |
| HMLTTMSSQWKPSLDAIEILEKSGIAYSFIEDAIPEFVLYWRERGISHGAWNTKFVEHIRKQWAKFEAS | 0.21 |
| HMKSPVKLILRGSIYHIKISAVVNGQRIFVRESSHTTDKREAEQYANKRFAQLVEETEFRTN | -0.907 |
| HMINLDGIGEKISRLRKEQGVTIRELSEYTGYSVGFLSNLETGKNSPTVESLQRVAEALRTDIIEILTK | -0.754 |
| HMIQLKEHDVVRLRETIVENDEKIPAGTRGVVLSVYDGGRAFAVEVADDRAASAIITAFRDQLEVY | -0.0481 |
| HMPKELAPYDILARYYLTVNNSKQSIALLEQYLDKAGSAPAALKAKLLLAGILYPSGNKERAEKLVEEVIK | -0.136 |
| HMDRSLYVGDAVGFDSARGLMEIEVKNKFSVVAVSLKKKPSGNFITPLLRMEKKKGEAVTVAPGSGHR | -0.141 |
| HMDQHERQQLLIHIAGGEREALAELYQRTRSAVYGLALSYLKNAHDAQDLTRDVYVQVWDRA | 0.0408 |
| HMGSKKAIPYVSGMSETEAQNELEEAGFKVTSSFQYDDSVESGKVISTTPEAGTKAEKGSTVTMLVSQGSN | 0.0696 |
| HMEKLNYSISNEEQGQRIDKYLSLMIEGKSRSFIQGLIDDKKVMANGKVIKSNYKLKNNDEITVEMPDPI | 0.0918 |
| HMISKYLRIESDILSAIREGRLKPGDKLPGQSEMRRIYNVSAITVRKAFTDLINDGYLVGVRGSGTYVAKR | 0.117 |
| HMNMEYQKAINHIVQMVKDGQLIVGSKIPSERDLSESLGIGRNSTREAISILRGMGLVESRHGSGNYIAKD | 0.22 |
| HMEYYDDEELDRFRGVEADAYDEDAVNEFRDVLYTLQEIEVAGWLRSLQLRAINLPDELKDEAFLI | -2.01 |
| HMVHSEDLQDHKYVSQLGEVFLKENPNYENIKKSWGDHMVVIKKFGRYPHRNKILNRKSTPEELEFLKG | -0.115 |

| Sequence | soluble fraction (log2) |
| --- | --- |
| HMRVDLATEVHSVLRRMMSRPPTLQEIRADLDGEEPGRVHEALDALRAAFRGGRGPKNPYESLKRSLRRG | -0.126 |
| HMTPTFSNQDLIKAGLAGSPVAKRRRERLGELLGIGYGNAKQLLKRLDLFAIDRPTFERAVAQLDQEGK | 0.414 |
| HMPDLSMLDEVLDEYRSQAGSLVTVLQKAQDLYGYLPLTILRHIAEEMNIKPAQVYGVATFYTQFRL | -0.866 |
| HMNLDMVINKIGIVTEDIKQDKIGEVKVLGKRWSAYSNTELKKDEKVKILSIDGVKLKVEKI | 0.413 |
| HMSTMLPFVMRELVELVMKKKALPLGDALYYIYSSKLYKSLLDKSTKLWYSSTLSLYETLEKEKTEEKRRY | -0.802 |
| HMDDHKQHLIDFYHSRKRMPTYTEMMALFGYKSKNAVARLVEKMIDAGIVTKDKLGKLLPTTLFDSVPL | -0.0996 |
| HMDPEIADAVNTIKKYLESHYSEVITRKKIEELVHLNQDHINREFKKQTGYTLMEYVQHYRILMAKKMLRV | -0.1 |
| HMITNLEPFKDFVRGFSGLHLEGVGQEKLAAALDERIRKTGSANERDYLQLIMEDVAERLKLINILT | -1.17 |
| HMGEMTDFETLRDMYLTGQIWNIDDLIEANGVEGRIVRRGTNYIAFNDRDGKVHKAWLHEVTINE | -1.39 |
| HMTVEMYIGKTANVLETVTENNGRIAIFGEEWQAKSLNGETIEKGAQAKIVKNDSIIMYVVPI | -0.367 |
| HMQEHAHLWRLMEDNRSFKADYIAFENGIVLLQNLSSGKISQYPITDFSIEDQLLILKRHELTAHINAN | -0.0419 |
| HMADPLQLLEQQRQDYIQAVTEYLNSHPNAKPIWDVMKKDAGYGDMKLTDIPLGILKKLYITLT | -0.137 |
| HMTTGGAEELGRTERKIVEQVGRGLSNREIAQVLGLSEGTVRNYLSTILGKLGLRDRTQLAIWSVQTGFAA | -0.371 |
| HMSIYMNIYNEFKKYIIANVYKYDDKLPSVRSIALEYGINPNTVQRAFQLLEDEGYIKTISKKGVYVNYR | 0.112 |
| HMEGTEVTTEPPGAQIEFDGKQFGPTPTRVPGLAAGKQFRITLAGYQEAKPKLKNNPKEGEPLSFTLTAI | 0.264 |
| HMSADLVYLRKRLQDAIAQLPENMRTAYTLFQIANRSIREISELTGASESLVKVRIHRAKGKLQKQLEDLK | -0.5 |
| HMKPTVKKLLAALPELRSGQPLHLSVATRKLRDAGLLGKNASSPTLFRNYVAQFELIPENQPNAVRYR | 0.268 |
| HMKLSLKTQVKEYLLSYIRDKKLQPGDRLLTQRELAEMLHTSQKVAQMALNSLEEEGIIIRRLGSGSFLAR | -0.227 |
| HMYSLSELERIKNFLTGYMSDYSIMMLDANEITNQVDISLKDYSDDNIESIKAAVLSHGGKTDYLNFIDDS | -1.01 |
| HMIDEPENLIQEDKMVNIIYDLALLEGVKTFNSSNFQSVKSNDFVYKKYKIDSLQFAKSTQFYASDINR | -0.404 |
| HMHGESISVPDLRGQKMERMPAFLADKHLQFKVIDSLFDLEKNPGTVLEQDPAPNSKVKEGRTIYLTVNAQ | -0.118 |
| HMINIQYSYNDGKETLHNLSPEVIAEKIMDDPNGYHIVWKQGMVGWVNANDIDDIAKLLRQKK | -0.0166 |
| HMSEYVIVTGEKVNLRVGPGMDYEIAGQVVKGDKLELLASEGDWSKVKTGSGSIYYISSSLVQKA | -0.334 |
| HMINRMGRLVEALSHMIANTKPGARLPSEPELARQLGVSRATLREAMRTFEAQGMIHRRQGAGTFVVH | 0.00515 |
| HMETYPINVETTGTNVLLRTGPSTSSNIIKTITDKGTVFLSIERGINSDWQKVVTPDGTIGYMSGKY | -0.314 |

| Sequence | soluble fraction (log2) |
| --- | --- |
| HMPSPFYIMDEVEAALDDTNLGRLITLFEELRDSSQLIVITHQKKTMEIADALYGVTMRGDGITTVVSQRL | -2.24 |
| HMKLGYTVHGNVVTVKAVANGISLYNTIGQKVAESTDGQTVKAPAHGVYILSVQGKSGSRETAKIVI | 0.114 |
| HMEKALEVKYQKMVELLGDQSTFYVDEVKKIFPEMKKSSLYWNMSKLVEGGYLRRIRNGVYAFNE | -0.124 |
| HMPFDRTVQLAGARARQLQALPRYREVLRLLDEGMNPREIGQVLDPPVTRQRASALIQQAKRAQMLGLFED | -0.0649 |
| HMSLSISSLVFFRKNAGLTQADIATAMSITQSAVARLEKRLLSDSDVTLKTLERYAEAVGIRMHVDFEP | -0.0175 |
| HMGMGDALRILFNQAMLIEREQYLQAGAYERNENPVNYANGFKAKTLNTRVGALEVAVPQTRDSAFYPSFL | -0.163 |
| HMSTMKSKWFVSSNPIAGVMKYQAQRKKDVNAVDSSENREASGQWYTDKEEAQAIVDKLNAEEQIKEAGK | 0.0846 |
| HMREVEAPRDLLAALGERPGALDAWKALSFTHQREYVEAIEDARKPETRERRIANAVKMVAERS | 0.111 |
| HMRQIMIIVLKSTATKEDSLLFKNKLEQEYGVKVNEWTGVESTVLGLIGDTTKIDIDYISAQDIVESVKRV | -0.494 |
| HMVYNQYILTQSVRLREEPGISGRVIRLLETGTTVELVDTVVVNKDDYDWVWVKLSDGAVGWIIKSAIDI | -1.03 |
| HMGDLVKGKVVGYDPDNVIVDIGAKTNALVPNREAVVEAGDDIKETLKKGNEYEFLIIRDEDEEGEFL | 0.0813 |
| HMPLLKIGAQGHDVRVVQEALQRAGYAIEGVTGIFDEATREAVLAFQRDQQLTESGTVDRATWHALRR | -0.52 |
| HMVNVTEAIDLENGTGKLSGTFNHEPKSAEEIIFLLKIDTNKWKLSQYWNKQMGDHWRVSALISQI | -1.54 |
| HMRRRKPLVSYEYGTRVYAPSEGEPRYRVVATDADGQRVFAKFSSEEAARHRAREIEGRLATS | 0.0937 |
| HMRLADHVVEKLLALVQERGLQPGQKLPAERQLAEVLGVSRTSVREAIQKLVSQGVLSARRGDGTYVQS | 0.0683 |
| HMADKNIIGVLSAADNLGKVRITTANGEKYIITVPDGLSDIVKTYWEEEVSVKYVIEKRRKILVDIDG | -0.47 |
| HMELEDTYTKNLDASLARLDEYQASKGLTDEQVDEVINSLIADAENIIMGVFTPELIDSKLKAMNYDQDV | -0.17 |
| HMPAVTEQTRANLRTAFWSLYREKPTSKITVREITDRAGYNRATFYLYYRDVYDLFEQIEQEIL | -1.36 |
| HMSETAVTYNEDFEADGSLRPNEQAVLDAFTGVLKLTVSELEKKTGLRNVVPVVASLMAKGAVEVSEELK | -0.763 |
| HMEELIEMNGVVMEILPDSRYRVTLDNGHKLIAYTGGKMKKNHIRILAGDKVTLELSPYDINNGRITFRHI | -0.146 |
| HMPNPALESARPAFEAFLSRFSDGEAMRGPAWGLWSLLHRKGNAPTASHAAGRDGMGVLAFLRHWQWG | -0.551 |
| HMKRLPAQMGGGDGVLRVPGLNNFVYVTIADKTLPAFNNRVPPKKGLRIWVGYSPEEPNLFQVLSTRTD | 0.0233 |
| HMVAESGLPPAFRSTWRHIMQTRGAQLDVLAMRTGTDAASLQKQLHAMELGGWVRRMPGGWYVPLK | -0.1 |
| HMHPKTPDELLALMSEEQRGQIEQLAKLVLMAVSYSGASYYDAVTTMYPRMSEERRRIITHVLNTASP | -0.825 |
| HMQLASILDDIPGIGKKRKENLLTHFGSFSKIQSADIDALAEVPGISRDLAETIHTYLKTHQ | -0.0521 |
